Measured values reported in patent US5773574A, “Polypeptides for promoting cell attachment” (The Scripps Research Institute, priority 1991, dated 1998).
Residues, ends and D or L forms follow the SMILES beside them.

Legend:
GPIIb-IIIa [1] = target: T1, GPIIb-IIIa (Homo sapiens, UniProt P05106+P08514); assay: Competition assay: biotinylated Fn binding to purified GPIIb-IIIa in presence of synthetic polypeptides; conditions: 250 μM polypeptide, 10 nM biotinylated Fn; FIG. 9
T1 construct: GPIIb-IIIa from platelet lysates is purified by the following procedure; from tissue
Procedure: (SEQ ID NO 11) as shown by the line with closed squares. […] The competition assays were performed in microtiter wells of a 96-well plate as described in Example 9b(1). Briefly, microtiter wells coated with purified GPIIb-IIIa receptor were maintained with 10 nM biotinylated Fn for 2 hours at room temperature in the presence of varying concentrations of D-11-T and RGDS.
The competition assay was performed by first admixing into individual wells of a 96 well microtiter plate (Immunlon, Dynatech) 10 μg/ml of purified GPIIb-IIIa, prepared in Example 1, diluted in HEPES-saline buffer, pH 7.4, consisting of 10 mM HEPES, 150 mM NaCl, 1 mM CaCl2 and 1 mM MgCl2. […]
The Fn-peptide admixtures were maintained in GPIIb-IIIa-coated wells for 2 hours at room temperature to allow the biotinylated Fn to bind to the receptor. Following this maintenance period, the reacted wells were washed as described above and the amount of biotinylated Fn bound to GPIIb-IIIa was determined by admixing 0.1 ml avidin bound to biotinylated horseradish peroxidase H (Hrp) (Sigma, St. Louis, Mo.) at a 1:2000 dilution to form an avidin-biotinylated Fn admixture. […] After maintaining the color developing-reaction admixture for 10 minutes at 20° C., the reaction was stopped with the admixture of 2N H2 SO4, and the stopped reactions were measured for absorbance as described in Example 3a. […]

GPIIb-IIIa [2] = target: T1, GPIIb-IIIa; assay: Interaction of 125I-labelled ligands with GPIIb-IIIa coated microtiter wells (Table 3); type: binding; conditions: 125I-labelled ligand
Procedure: Incubate the GPIIb-IIIa with plate for 1 hour at room temperature, then dump unbound and block with 150 ul of 5% BSA in the same buffer for 1 hour at room temperature. Wash three times with 150 μl of Tyrode's buffer with 5 mM HEPES, 1 mM MgCl2 1 mg/ml dextrose, 1 mg/ml BSA. Add 50 μl of ^125 I fusion protein (125 mg/ml) at varied concentration (4×10^-7 to 1×10^-10 M). Incubate 4 hours to overnight at room temperature (with lead shield).
Carefully remove radioactive samples and wash 3 times with 150 μl Tyrodes with 5 mM HEPES, 1 mM MgCl2, 1 mg/ml dextrose, 1 mg/ml BSA. Count with a Gamma Counter and elute by boiling in SDS-PAGE loading Buffer.
To determine if the insert coded polypeptide containing fibronectin residues 1255-1456 bound GPIIb-IIIa, the capacity of microtiter wells coated with purified GPIIb-IIIa to bind the radiolabelled fusion-protein preparation was ascertained (Table 3). In addition, the radiolabelled material bound to the insolubilized GPIIb-IIIa was recovered and analyzed by SDS-PAGE followed by radioautography. […] The isolated protein products were a mixture of insert coded polypeptides containing fusion protein and maltose binding protein breakdown products. only those bands containing the insert-coded polypeptide bound to the insolubilized GPIIb-IIIa and that binding was inhibitable by either EDTA or the monoclonal antibody FnI-16.

[3] = target: GPIIb-IIIa (Homo sapiens (Human)) (UniProt P08514); assay: 125I-labelled ligand on GPIIb-IIIa-coated wells; inhibitor 2 mM GDTA (so in the source)
[4] = target: GPIIb-IIIa (Homo sapiens (Human)) (UniProt P08514); assay: 125I-labelled ligand on GPIIb-IIIa-coated wells; inhibitor Mab 16.12
[5] = target: GPIIb-IIIa (Homo sapiens (Human)) (UniProt P08514); assay: 125I-labelled ligand on GPIIb-IIIa-coated wells; no inhibitor
[6] = target: GPIIb-IIIa (Homo sapiens (Human)) (UniProt P08514); assay: 10 nM biotinylated Fn on GPIIb-IIIa-coated wells, avidin-HRP detection
[7] = target: GPIIb-IIIa (Homo sapiens (Human)) (UniProt P08514); assay: competition with 10 nM biotinylated Fn on GPIIb-IIIa-coated wells

Q: `CC[C@H](C)[C@H](NC(=O)[C@H](CO)NC(=O)[C@H](CC(N)=O)NC(=O)[C@H](CCCNC(=N)N)NC(=O)[C@H](CO)NC(=O)[C@H](Cc1c[nH]cn1)NC(=O)[C@@H]1CCCN1C(=O)[C@@H](NC(=O)[C@H](CCCNC(=N)N)NC(=O)[C@@H](N)CC(=O)O)C(C)C)C(=O)N[C@H](C(=O)O)[C@@H](C)O` [D-11-T] (H-DRVPHSRNSIT-OH) was tested. Which “inhibition of binding of biotinylated Fn to GPIIb-IIIa” value (GPIIb-IIIa [1]) did it give?
A: The value was “greater than 80%”.

Q: How did the “Counts ×10^-3” value (GPIIb-IIIa [2]; inhibitor 2 mM EDTA) turn out when “Fibronectin: intact Fn isolated from fresh human citrated plasma on gelatin-sepharose” was run?
A: Its value is 8 Counts ×10^-3.

Q: What about the “Counts ×10^-3” value (GPIIb-IIIa [2]; inhibitor Mab 16.12) of the same compound?
A: Its value is 12 Counts ×10^-3.

Q: What about the “Counts ×10^-3” value (GPIIb-IIIa [2]; no inhibitor) of the same compound?
A: The value was 42 Counts ×10^-3.

Q: For “fibronectin (Fn), intact, isolated from fresh human citrated plasma (from UniProt P02751) (ligand)”, which Counts ×10^-3 (counts ×10^-3) [3] is on record?
A: Its Counts ×10^-3 (counts ×10^-3) is 8.

Q: And the Counts ×10^-3 (counts ×10^-3) [4]?
A: The Counts ×10^-3 (counts ×10^-3) was 12.

Q: What about the Counts ×10^-3 (counts ×10^-3) [5] of the same compound?
A: Its Counts ×10^-3 (counts ×10^-3) is 42.

Q: And the absorbance at 490 nm (absorbance at 490 nm) [6]?
A: The absorbance at 490 nm (absorbance at 490 nm) was 2.7.

Q: Which percent inhibition of control binding at 200 µM polypeptide [7] does the source give for polypeptide DRVPHSR here?
A: The percent inhibition of control binding at 200 µM polypeptide was 35 to 40%.
